T1: CD79b on Ramos cells and on endogenous B cells of human PBMCs (human, UniProt P40259 29-229)
T1 sequence (looked up): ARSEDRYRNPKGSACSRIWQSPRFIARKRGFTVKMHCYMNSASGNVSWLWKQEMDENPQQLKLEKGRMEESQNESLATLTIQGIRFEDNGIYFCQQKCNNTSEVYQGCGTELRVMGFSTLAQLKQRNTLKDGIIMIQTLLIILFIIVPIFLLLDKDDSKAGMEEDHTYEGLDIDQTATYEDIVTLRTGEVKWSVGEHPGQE


Columns and labels:
Assay in all cases: cell-based or functional assay
[1] = biological target: T1, CD79b on Ramos cells and on endogenous …
[2] = biological target: T1, CD79b on Ramos cells and on endogenous …; remark: listed apart in the source
[3] = biological target: T1, CD79b on Ramos cells and on endogenous …; remark: listed apart in the source
[4] = biological target: T1, CD79b on Ramos cells and on endogenous …; remark: listed apart in the source
[5] = biological target: T1, CD79b on Ramos cells and on endogenous …; remark: listed apart in the source
[6] = biological target: T1, CD79b on Ramos cells and on endogenous …; remark: listed apart in the source

Binder	IC50 (nM), Ramos cell killing by PBMCs (test 2), Donor 431 [1]	IC50 (nM), Ramos cell killing by M1 macrophages, Donor 431 [2]	IC50 (nM), Ramos cell killing by M0 macrophages, Donor 022 [3]	IC50 (nM), Ramos cell killing by M0 macrophages, Donor 431 [3]	IC50 (nM), killing of endogenous B cells by PBMCs, Donor 367 [4]	IC50 (nM), killing of endogenous B cells by PBMCs, Donor 431 [4]	IC50 (nM), Ramos cell killing by PBMCs (test 3), Donor 281 [5]	IC50 (nM), Ramos cell killing by PBMCs (test 3), Donor 367 [5]	IC50 (nM), Ramos cell killing by M2 macrophages, Donor 022 [6]	IC50 (nM), Ramos cell killing by M2 macrophages, Donor 431 [6]	IC50 (nM), Ramos cell killing by PBMCs (test 2), Donor 234 [1]	IC50 (nM), killing of endogenous B cells by PBMCs, Donor 234 [4]	IC50 (nM), Ramos cell killing by M1 macrophages, Donor 100 [2]	IC50 (nM), Ramos cell killing by M0 macrophages, Donor 100 [3]	IC50 (nM), Ramos cell killing by M0 macrophages, Donor 233 [3]	IC50 (nM), killing of endogenous B cells by PBMCs, Donor 023 [4]	IC50 (nM), Ramos cell killing by PBMCs (test 3), Donor 022 [5]	IC50 (nM), Ramos cell killing by M2 macrophages, Donor 100 [6]	IC50 (nM), Ramos cell killing by M2 macrophages, Donor 233 [6]
CD79b/5C7 (2+1 B) Fc-silenced (bispecific antibody, human IgG1, kappa, L234A L235A) heavy 1: EQQLVETGGGLIQPGGSLRLSCAASGFTINIDYWISWVRQAPGKGLEWIGIIDPGDGTTYFAIWVSGRFTISFDNSKNTVYLQMNSLRAEDTAVYFCVREFSASAYQYDLWGPGTLVTVSSASTKGPSVFPLAPSSKSTSGGTAALGCLVKDYFPEPVTVSWNSGALTSGVHTFPAVLQSSGLYSLSSVVTVPSSSLGTQTYICNVNHKPSNTKVDKKVEPKSCDKTHTCPPCPAPEAAGGPSVFLFPPKPKDTLMISRTPEVTCVVVDVSHEDPEVKFNWYVDGVEVHNAKTKPREEQYNSTYRVVSVLTVLHQDWLNGKEYKCKVSNKALGAPIEKTISKAKGQPREPQVCTLPPSRDELTKNQVSLSCAVKGFYPSDIAVEWESNGQPENNYKTTPPVLDSDGSFFLVSKLTVDKSRWQQGNVFSCSVMHEALHNRFTQKSLSLSPGK heavy 2: not shown light: ELVMTQSPATLSVSPGERATLSCRASEDIENYLAWYQQKPGQPPRLLIYRASTLSSGVPARFSGSGSGTEFTLTISSLQSEDFAVYYCQQGYRNSNVDNPFGGGTKVEIKRTVAAPSVFIFPPSDEQLKSGTASVVCLLNNFYPREAKVQWKVDNALQSGNSQESVTEQDSKDSTYSLSSTLTLSKADYEKHKVYACEVTHQGLSSPVTKSFNRGEC	0.0155 nM	0.005 nM	0.003 nM	0.002 nM	0.0155 nM	0.0155 nM	0.0165 nM	0.0685 nM	0.002 nM	0.002 nM	–	–	–	–	–	–	–	–	–
CD79b/5C7 (2+1 B) Fc-optimized (bispecific antibody, human IgG1, kappa) heavy 1: EQQLVETGGGLIQPGGSLRLSCAASGFTINIDYWISWVRQAPGKGLEWIGIIDPGDGTTYFAIWVSGRFTISFDNSKNTVYLQMNSLRAEDTAVYFCVREFSASAYQYDLWGPGTLVTVSSASTKGPSVFPLAPSSKSTSGGTAALGCLVKDYFPEPVTVSWNSGALTSGVHTFPAVLQSSGLYSLSSVVTVPSSSLGTQTYICNVNHKPSNTKVDKKVEPKSCDKTHTCPPCPAPELLAGPSVFLFPPKPKDTLMISRTPEVTCVVVDVSHEDPEVKFNWYVDGVEVHNAKTKPREEQYNSTYRVVSVLTVLHQDWLNGKEYKCKVSNKALPLPEEKTISKAKGQPREPQVYTLPPSRDELTKNQVSLSCAVKGFYPSDIAVEWESNGQPENNYKTTPPVLDSDGSFFLVSKLTVDKSRWQQGNVFSCSVMHEALHNHYTQKSLSLSPGK heavy 2: EQQLVETGGGLIQPGGSLRLSCAASGFTINIDYWISWVRQAPGKGLEWIGIIDPGDGTTYFAIWVSGRFTISFDNSKNTVYLQMNSLRAEDTAVYFCVREFSASAYQYDLWGPGTLVTVSSASTKGPSVFPLAPSSKSTSGGTAALGCLVKDYFPEPVTVSWNSGALTSGVHTFPAVLQSSGLYSLSSVVTVPSSSLGTQTYICNVNHKPSNTKVDKKVEPKSCDKTHTCPPCPAPELLAGPSVFLFPPKPKDTLMISRTPEVTCVVVDVSHEDPEVKFNWYVDGVEVHNAKTKPREEQYNSTYRVVSVLTVLHQDWLNGKEYKCKVSNKALPLPEEKTISKAKGQPREPQVYTLPPSRDELTKNQVSLWCLVKGFYPSDIAVEWESNGQPENNYKTTPPVLDSDGSFFLYSKLTVDKSRWQQGNVFSCSVMHEALHNHYTQKSLSLSPGKGGGGSGGGGSGGGGSDIQMTQSPSSLSASVGDRVTITCQASESVDRNNRLAWFQQKPGKPPKLLIYTTSTLASGVPSRFSGSGSGTDFTLTISSLQPEDVATYYCAGYRGAHTDGDAFGGGTKVEIKGGGGSGGGGSGGGGSGGGGSEQQLVESGGGLVKPGGSLRLSCAASGFSFSRSSYMCWVRQAPGKGLEWIGCLSVGDGHTYYASWAKGRFTISKDSAKNSVYLQMNSLRAEDTAVYFCARAPSYSGDGGHGYDLWGPGTLVTVSS light: ELVMTQSPATLSVSPGERATLSCRASEDIENYLAWYQQKPGQPPRLLIYRASTLSSGVPARFSGSGSGTEFTLTISSLQSEDFAVYYCQQGYRNSNVDNPFGGGTKVEIKRTVAAPSVFIFPPSDEQLKSGTASVVCLLNNFYPREAKVQWKVDNALQSGNSQESVTEQDSKDSTYSLSSTLTLSKADYEKHKVYACEVTHQGLSSPVTKSFNRGEC	0.0104 nM	0.005 nM	0.003 nM	0.004 nM	0.104 nM	0.104 nM	0.0112 nM	0.0186 nM	0.002 nM	0.001 nM	0.0639 nM	0.0207 nM	–	–	–	–	–	–	–
CD79b/5C7 (1+1 B) Fc-silenced (bispecific antibody, human IgG1, kappa, L234A L235A) heavy 1: EQQLVETGGGLIQPGGSLRLSCAASGFTINIDYWISWVRQAPGKGLEWIGIIDPGDGTTYFAIWVSGRFTISFDNSKNTVYLQMNSLRAEDTAVYFCVREFSASAYQYDLWGPGTLVTVSSASTKGPSVFPLAPSSKSTSGGTAALGCLVKDYFPEPVTVSWNSGALTSGVHTFPAVLQSSGLYSLSSVVTVPSSSLGTQTYICNVNHKPSNTKVDKKVEPKSCDKTHTCPPCPAPEAAGGPSVFLFPPKPKDTLMISRTPEVTCVVVDVSHEDPEVKFNWYVDGVEVHNAKTKPREEQYNSTYRVVSVLTVLHQDWLNGKEYKCKVSNKALGAPIEKTISKAKGQPREPQVCTLPPSRDELTKNQVSLSCAVKGFYPSDIAVEWESNGQPENNYKTTPPVLDSDGSFFLVSKLTVDKSRWQQGNVFSCSVMHEALHNRFTQKSLSLSPGK heavy 2: not shown light: ELVMTQSPATLSVSPGERATLSCRASEDIENYLAWYQQKPGQPPRLLIYRASTLSSGVPARFSGSGSGTEFTLTISSLQSEDFAVYYCQQGYRNSNVDNPFGGGTKVEIKRTVAAPSVFIFPPSDEQLKSGTASVVCLLNNFYPREAKVQWKVDNALQSGNSQESVTEQDSKDSTYSLSSTLTLSKADYEKHKVYACEVTHQGLSSPVTKSFNRGEC	0.0329 nM	0.005 nM	–	0.004 nM	0.0329 nM	0.0329 nM	0.0452 nM	0.29 nM	–	0.003 nM	–	–	0.001 nM	0.006 nM	0.003 nM	0.0833 nM	0.334 nM	0.002 nM	0.005 nM
CD79b/5C7 (2+1 A) Fc-silenced (bispecific antibody, human IgG1, kappa, L234A L235A) heavy 1: EQQLVETGGGLIQPGGSLRLSCAASGFTINIDYWISWVRQAPGKGLEWIGIIDPGDGTTYFAIWVSGRFTISFDNSKNTVYLQMNSLRAEDTAVYFCVREFSASAYQYDLWGPGTLVTVSSASTKGPSVFPLAPSSKSTSGGTAALGCLVKDYFPEPVTVSWNSGALTSGVHTFPAVLQSSGLYSLSSVVTVPSSSLGTQTYICNVNHKPSNTKVDKKVEPKSCDGGGGSGGGGSGGGGSEQQLVETGGGLIQPGGSLRLSCAASGFTINIDYWISWVRQAPGKGLEWIGIIDPGDGTTYFAIWVSGRFTISFDNSKNTVYLQMNSLRAEDTAVYFCVREFSASAYQYDLWGPGTLVTVSSASTKGPSVFPLAPSSKSTSGGTAALGCLVKDYFPEPVTVSWNSGALTSGVHTFPAVLQSSGLYSLSSVVTVPSSSLGTQTYICNVNHKPSNTKVDKKVEPKSCDKTHTCPPCPAPEAAGGPSVFLFPPKPKDTLMISRTPEVTCVVVDVSHEDPEVKFNWYVDGVEVHNAKTKPREEQYNSTYRVVSVLTVLHQDWLNGKEYKCKVSNKALGAPIEKTISKAKGQPREPQVCTLPPSRDELTKNQVSLSCAVKGFYPSDIAVEWESNGQPENNYKTTPPVLDSDGSFFLVSKLTVDKSRWQQGNVFSCSVMHEALHNRFTQKSLSLSPGK heavy 2: not shown light: ELVMTQSPATLSVSPGERATLSCRASEDIENYLAWYQQKPGQPPRLLIYRASTLSSGVPARFSGSGSGTEFTLTISSLQSEDFAVYYCQQGYRNSNVDNPFGGGTKVEIKRTVAAPSVFIFPPSDEQLKSGTASVVCLLNNFYPREAKVQWKVDNALQSGNSQESVTEQDSKDSTYSLSSTLTLSKADYEKHKVYACEVTHQGLSSPVTKSFNRGEC	–	–	0.003 nM	–	–	–	–	–	0.003 nM	–	–	–	0.001 nM	0.002 nM	–	–	–	0.001 nM	–

From US20260201033A1 (LTZ THERAPEUTICS, published 2026)
